According to patent publication US20130108641A1:

Tests used:
[1] = target: human GITR-Fc fusion protein (human) (UniProt Q9Y5U5); experiment: competition ELISA, GITRL coated, GITR-Fc 0.25 µg/mL pre-incubated with antibody
[2] = target: human GITR expressed on cells (human) (UniProt Q9Y5U5); experiment: cell-based or functional assay
[3] = target: human GITR expressed on cells (human) (UniProt Q9Y5U5); experiment: FACS, Alexa488-labeled antibody on PHA-stimulated human PBMCs

Chain of human GITR expressed on cells (human) (Q9Y5U5 26-241): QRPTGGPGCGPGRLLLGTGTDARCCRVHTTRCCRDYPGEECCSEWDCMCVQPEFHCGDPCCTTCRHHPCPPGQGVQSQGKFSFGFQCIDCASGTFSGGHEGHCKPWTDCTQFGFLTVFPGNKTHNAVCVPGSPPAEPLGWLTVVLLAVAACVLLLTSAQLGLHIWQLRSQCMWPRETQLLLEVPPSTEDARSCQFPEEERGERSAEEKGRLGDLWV
Chain of human GITR-Fc fusion protein (human) (Q9Y5U5 26-162): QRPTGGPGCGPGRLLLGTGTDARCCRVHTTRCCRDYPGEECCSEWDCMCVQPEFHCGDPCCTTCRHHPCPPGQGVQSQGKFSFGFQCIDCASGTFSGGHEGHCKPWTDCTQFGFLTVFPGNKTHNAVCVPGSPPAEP

IC50 [1]: 13.9 nM
inhibition of NFkB signal transduction (luciferase reporter) at 300 ng/ml [2]: 18%
Kd [3]: 1.66 nM
Substance: MAB689 (R&D Systems), commercial anti-GITR antibody
